Results as given in patent publication EP4059514A1 (Xencor, Inc., dated 2022).

Key:
cyno CD3 = molecular target: T1, cyno CD3 (cyno, UniProt Q95LI5 22-117); experiment: method not stated in the legend (Figure 143)
T1 construct: also called cynomolgus monkey CD3
T1 sequence (looked up): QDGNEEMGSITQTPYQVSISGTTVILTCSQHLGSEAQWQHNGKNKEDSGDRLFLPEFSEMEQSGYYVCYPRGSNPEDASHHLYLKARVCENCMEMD

human CD3 = human CD3 (human, UniProt P07766 23-126); experiment: method not stated in the legend (Figure 142)
Sequence of human CD3 (P07766 23-126): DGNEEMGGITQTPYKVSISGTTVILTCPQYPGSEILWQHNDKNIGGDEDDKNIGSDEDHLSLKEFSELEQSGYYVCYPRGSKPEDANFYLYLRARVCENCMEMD

- Kd (cyno CD3): 5.7 nM
- Kd (human CD3): 8.1 nM
B1: XENP14045 (anti-CD123 x anti-CD3) bispecific (bispecific antibody)
chain 1: QVQLQQSGAEVKKPGASVKVSCKASGYTFTDYYMKWVKQSHGKSLEWMGDIIPSNGATFYNQKFKGKATLTVDRSTSTAYMELSSLRSEDTAVYYCARSHLLRASWFAYWGQGTLVTVSSASTKGPSVFPLAPSSKSTSGGTAALGCLVKDYFPEPVTVSWNSGALTSGVHTFPAVLQSSGLYSLSSVVTVPSSSLGTQTYICNVNHKPSDTKVDKKVEPKSCDKTHTCPPCPAPPVAGPSVFLFPPKPKDTLMISRTPEVTCVVVDVKHEDPEVKFNWYVDGVEVHNAKTKPREEEYNSTYRVVSVLTVLHQDWLNGKEYKCKVSNKALPAPIEKTISKAKGQPREPQVYTLPPSREEMTKNQVSLTCDVSGFYPSDIAVEWESDGQPENNYKTTPPVLDSDGSFFLYSKLTVDKSRWEQGDVFSCSVMHEALHNHYTQKSLSLSPGK
chain 2: not shown
chain 3: not shown
